From publication PMC5773591, “Structural basis of trans-synaptic interactions between PTPδ and SALMs for inducing synapse formation” (Nature Communications, 2018)

B1: human SALM5 LRR–Ig-His6 (residues 18–378) [human] / itself (parent)
chain: QICPKRCVCQILSPNLATLCAKKGLLFVPPNIDRRTVELRLADNFVTNIKRKDFANMTSLVDLTLSRNTISFITPHAFADLRNLRALHLNSNRLTKITNDMFSGLSNLHHLILNNNQLTLISSTAFDDVFALEELDLSYNNLETIPWDAVEKMVSLHTLSLDHNMIDNIPKGTFSHLHKMTRLDVTSNKLQKLPPDPLFQRAQVLATSGIISPSTFALSFGGNPLHCNCELLWLRRLSREDDLETCASPPLLTGRYFWSIPEEEFLCEPPLITRHTHEMRVLEGQRATLRCKARGDPEPAIHWISPEGKLISNATRSLVYDNGTLDILITTVKDTGAFTCIASNPAGEATQIVDLHIIKLP

Variants of: B1
Experiment: SEC-MALS
Conditions: with itself; read off a plot

Variant | screen value
chain 1 N141A | 56 kDa
